Residue numbers refer to the chain shown, from its start. In names and notes the source's numbering stands.
Columns and labels:
MCF-7 cells [1] = assay: Immunofluorescence confocal microscopy of Omi in MCF-7 cells; format: cell-based; conditions: TRAIL 1 μg/ml; untreated cells mostly punctate and perinuclear
[2] = target: T1, caspase-9 interaction with XIAP (procaspase-3 activation) (Homo sapiens, UniProt P98170); assay: Procaspase-3 activation in XIAP-containing S100 extracts stimulated with cytochrome c and dATP; format: biochemical; conditions: S100 extracts with purified XIAP, cytochrome c plus dATP; 10, 50 or 300 ng protein
T1 construct: caspase-9: endogenous in 293T/HEK293 S100 extract
Protocol: FIG. 17 is a scanned image of an autoradiogram, representing SDS-PAGE analysis of ^35S-labeled procaspase-3 following stimulation of 293T S100 extracts (20μg) mixed with purified XIAP (50 ng) with cytochrome c (0.5 μg) plus dATP (1 mM), in the presence of increasing amounts (10, 50, or 300 ng, respectively) of purified mature WT Omi, Omi-ΔAVPS, Omi-S306A, or mature Smac in 10 μl reaction volume. In the fifth lane, S100 extracts were incubated with. 300 ng of WT Omi without XIAP.
Next, it was determined whether Omi, like Smac, promotes caspase-9 activity in HEK293 S100 extracts in the presence of XIAP. To measure the caspase-9 activity in these extracts, ^35S-labeled procaspase-3 was added to the S100 extracts and stimulated the extracts with cytochrome c and dATP. […] These observations indicate that Omi, like Smac, is able to disrupt the interaction of caspase-9 with XIAP in the S100 extracts to promote procaspase-3 activation.

cIAP2 = target: T2, cIAP2 (Homo sapiens, UniProt Q13489); assay: In vitro interaction of immobilized His6-tagged protein with 35S-labeled cIAP2; format: binding; conditions: immobilized on Talon-affinity resin; in vitro-translated 35S-labeled cIAP2
T2 construct: made in house; host or cells: in vitro translation (cell-free)
Protocol: (§1) FIG. 8 is a scanned image of an autoradiogram representing SDS-PAGE analysis of interaction of XIAP, cIAP1, and cIAP2 with mature Omi and Smac. Immobilized C-terminal His6-tagged mature Omi or Smac, or GST protein was incubated with in vitro-translated ^35S-labeled XIAP (first panel), cIAP1 (second panel), or cIAP2 (third panel). The fourth panel is a scanned image of a Coomassie stained gel of the immobilized proteins.
(§2) C-terminal His6-tagged mature Omi or Smac, or a GST protein were immobilized onto Talon-affinity resin. The bound resins were incubated with in vitro-translated ^35S-labeled XIAP (first panel), cIAP1 (second panel) or cIAP2 (third panel), washed extensively, and then analyzed by SDS polyacrylamide gel electrophoresis and autoradiography. GST was used as a negative control (second lane of each panel). The fourth panel, represents a scanned image of a Coomassie stained gel of the immobilized proteins. […] The in vitro assays were performed as described in Srinivasula, S. M. et al., J Biol Chem 275:36152-36157, 2000.

GST-BIR3-E314S mutant = target: T3, GST-BIR3-E314S mutant (Homo sapiens, UniProt P98170, E314S); assay: Interaction of purified recombinant proteins with GST-BIR3-E314S mutant; format: binding; conditions: purified C-terminal His6-tagged recombinant protein
T3 construct: Omi associates directly with the BIR3 domain of XIAP
From the text: (§3) FIGS. 7A and 7B are scanned images of Coomassie stained gels representing SDS-PAGE analysis of purified C-terminal His6-tagged recombinant wild type mature Omi (WT), Omi-ΔAVPS, Omi-S306A, and mature Smac (7A) and recombinant Omi and Smac proteins with GST-BIR1, GST-BIR2, GST-BIR3, or GST-BIR3-E314S fusion proteins (7B).
To confirm that Omi associates directly with the BIR3 domain of XIAP but not with the Smac protein, Smac was depleted from the 293 extracts using a Smac monoclonal antibody. Specifically, 293 cellular extracts were either left untreated (undepleted lane of FIG. 4) or depleted with a Smac antibody (lane depleted of FIG. 4). The undepleted and depleted extracts were incubated with the GST-BIR3 protein and the bound proteins were eluted as above. The eluates were then analyzed by far-western blotting with ^35S-XIAP and by western blotting with the Smac antibody as described above (see FIG. 4, left and right panels, respectively). […] The last lane of each panel in FIG. 4 represents the 293 cellular extracts that were bound to the E314S mutant GST-BIR3 fusion protein. […] The asterisk in FIG. 4 indicates non-specific bands and the arrow indicates the IgG band. […]

endogenous XIAP = target: T4, endogenous XIAP (Homo sapiens, UniProt P98170); assay: Co-immunoprecipitation with endogenous XIAP in transfected 293T cells; format: cell-based; conditions: 293T cells transfected with C-terminal Flag-tagged Omi precursors, XIAP western blot
T4 construct: endogenous in cells; host or cells: 293T cells
From the text: FIG. 9 is a scanned image of a blot representing western blot analysis using an XIAP monoclonal antibody (upper panel) or Flag antibody (middle panel) of 293T cells transfected with constructs encoding C-terminal Flag-tagged Omi wild type or mutant precursors and immunoprecipitated with Flag antibody. The lower panel is a scanned image of a blot representing total extracts probed with the XIAP antibody. Arrows indicate IgG bands.

[3] = target: T5, GST-BIR3 fusion protein (BIR3 domain of human XIAP) (Homo sapiens, UniProt P98170); assay: Interaction of purified recombinant proteins with GST-BIR3 fusion protein (SDS-PAGE, Coomassie); format: binding; conditions: purified C-terminal His6-tagged recombinant protein; wild type GST-BIR3
T5 construct: Omi associates directly with the BIR3 domain of XIAP
From the text: as §3
(§4) To determine whether a recombinant Omi lacking the first 133 residues (mature Omi) can interact with the GST-BIR3 fusion protein, this protein was expressed with a C-terminal His6 tag in bacteria and purified to apparent homogeneity (see FIG. 7B). […] FIGS. 7A and 7B show scanned images of Coomassie stained gels representing SDS-PAGE analysis of purified C-terminal His6-tagged recombinant wild type mature Omi (WT), Omi-ΔAVPS, Omi-S306A, and mature Smac (FIG. 7A) and recombinant Omi and Smac proteins with GST-BIR1, 2, GST-BIR3 or GST-BIR3-E314S fusion proteins (FIG. 7B).

[4] = system: GST-BIR1, 2 fusion protein; assay: Interaction of purified recombinant proteins with GST-BIR1, 2 fusion protein; format: binding, human; conditions: purified C-terminal His6-tagged recombinant protein
From the text: as §3, §4

cIAP1 = target: T6, cIAP1 (Homo sapiens, UniProt Q13490); assay: In vitro interaction of immobilized His6-tagged protein with 35S-labeled cIAP1; format: binding; conditions: immobilized on Talon-affinity resin; in vitro-translated 35S-labeled cIAP1
T6 construct: made in house; host or cells: in vitro translation (cell-free)
Protocol: as §1, §2

MCF-7 cells [5] = assay: TRAIL-induced apoptosis of MCF-7 cells transfected with GFP-IETD-Omi constructs; format: cell-based; conditions: TRAIL for 16 hours, 24 hours following transfection; versus GFP transfected control cells
Protocol: (§5) FIG. 20 provides schematic diagrams of the Omi-GFP and GFP-IETD-Omi constructs used to assay the ability of Omi to induce apoptosis or to enhance apoptosis by other stimuli.
FIG. 25 is a bar graphic representation of the percentages of the determined round apoptotic MCF-7 cells that were left untreated (−) or treated with TRAIL (+) for 16 hours 24 hours following transfection with the indicated expression constructs.
(§6) Next, the contribution of the IAP binding activity of Omi to its proapoptotic activity was tested. The MTS of Omi was replaced with a GFP-IETD sequence and mutated at its active site Ser306 to Ala (FIG. 20, GFP-IETD-AVP). Of note, the presence of the IETD sequence between GFP and Omi-S/A allowed caspase-dependent cleavage at the IETD site after the Asp residue and release of mature Omi-S/A in the cytosol of the transfected 293 and MCF-7 cells (FIG. 23). […] Taken together, Omi not only can induce apoptosis through its serine protease activity but also via its ability to bind and neutralize IAPs.

XIAP-BIR3 = target: T7, XIAP-BIR3 (Homo sapiens, UniProt P98170); assay: GST-BIR3 precipitation of extracts of transfected 293T cells; format: binding; conditions: 24 hours after transfection
T7 construct: Omi associates directly with the BIR3 domain of XIAP
Protocol: FIG. 24 is a scanned image of an immunoblot with Flag-HRP antibody of 293T cells extracts precipitated with GST-BIR3 24 hours after transfection with the indicated expression constructs extracts.
as §6

MCF-7 cells [6] = assay: Apoptosis of MCF-7 cells transfected with cytosolic Omi-GFP fusion proteins; format: cell-based; conditions: 36 hours following transfection
Protocol: as §5
FIG. 21 is a bar graphic representation of the percentages of GFP-positive apoptotic MCF-7 cells 36 hours following transfection with M-Omi-S/A-GFP or pEGFP-N1 alone or M-Omi-GFP together with empty vector or expression construct encoding XIAP, XIAP-BIR3, or caspase-9DN. The cells were also transfected with M-Omi-GFP expression construct in the presence of zVAD-FMK (20 μM).

T7 sequence (P98170 238-358 limits assumed): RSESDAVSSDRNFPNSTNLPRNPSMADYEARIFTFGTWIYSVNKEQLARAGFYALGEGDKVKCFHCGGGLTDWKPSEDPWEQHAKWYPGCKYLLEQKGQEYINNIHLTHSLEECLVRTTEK
T3 sequence (P98170 238-358 E314S limits assumed): as the sequence (P98170 238-358 limits assumed) above, with E77S counted along it
T2 sequence (Q13489 whole entry, species assumed): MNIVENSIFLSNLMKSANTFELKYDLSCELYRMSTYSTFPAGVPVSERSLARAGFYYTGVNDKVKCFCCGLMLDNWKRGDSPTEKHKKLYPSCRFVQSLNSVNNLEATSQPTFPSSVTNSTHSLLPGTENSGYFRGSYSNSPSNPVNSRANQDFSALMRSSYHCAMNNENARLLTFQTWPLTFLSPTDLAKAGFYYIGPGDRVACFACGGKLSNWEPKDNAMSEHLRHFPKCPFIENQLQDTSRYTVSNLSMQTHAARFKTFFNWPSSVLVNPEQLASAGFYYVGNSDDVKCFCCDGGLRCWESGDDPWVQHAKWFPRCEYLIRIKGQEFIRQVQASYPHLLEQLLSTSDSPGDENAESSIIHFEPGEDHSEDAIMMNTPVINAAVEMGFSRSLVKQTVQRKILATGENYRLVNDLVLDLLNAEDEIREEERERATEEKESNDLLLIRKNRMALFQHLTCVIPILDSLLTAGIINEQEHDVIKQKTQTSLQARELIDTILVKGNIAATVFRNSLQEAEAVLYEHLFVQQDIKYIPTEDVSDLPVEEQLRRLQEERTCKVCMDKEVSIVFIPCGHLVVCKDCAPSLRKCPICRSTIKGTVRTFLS
T4 sequence (P98170 whole entry): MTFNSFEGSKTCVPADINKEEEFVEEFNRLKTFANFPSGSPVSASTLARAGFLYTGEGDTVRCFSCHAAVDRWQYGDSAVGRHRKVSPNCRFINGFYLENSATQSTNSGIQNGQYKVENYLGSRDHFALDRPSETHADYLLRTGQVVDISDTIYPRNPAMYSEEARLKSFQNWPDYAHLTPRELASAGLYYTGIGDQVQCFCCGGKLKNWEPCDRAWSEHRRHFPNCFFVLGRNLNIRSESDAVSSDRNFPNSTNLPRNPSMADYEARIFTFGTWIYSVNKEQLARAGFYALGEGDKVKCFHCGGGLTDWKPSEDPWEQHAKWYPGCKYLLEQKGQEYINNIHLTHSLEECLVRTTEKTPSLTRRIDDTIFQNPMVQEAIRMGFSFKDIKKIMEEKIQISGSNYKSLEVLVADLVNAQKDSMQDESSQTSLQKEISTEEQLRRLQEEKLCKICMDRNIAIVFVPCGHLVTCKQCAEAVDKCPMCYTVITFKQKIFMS
T1 sequence (P98170 whole entry): as above
Chain of GST-BIR1, 2 fusion protein (P98170 124-240 limits assumed): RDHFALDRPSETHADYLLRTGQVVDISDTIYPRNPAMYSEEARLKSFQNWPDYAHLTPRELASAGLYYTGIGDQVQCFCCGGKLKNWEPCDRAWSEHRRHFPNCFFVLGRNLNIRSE
T6 sequence (Q13490 whole entry, species assumed): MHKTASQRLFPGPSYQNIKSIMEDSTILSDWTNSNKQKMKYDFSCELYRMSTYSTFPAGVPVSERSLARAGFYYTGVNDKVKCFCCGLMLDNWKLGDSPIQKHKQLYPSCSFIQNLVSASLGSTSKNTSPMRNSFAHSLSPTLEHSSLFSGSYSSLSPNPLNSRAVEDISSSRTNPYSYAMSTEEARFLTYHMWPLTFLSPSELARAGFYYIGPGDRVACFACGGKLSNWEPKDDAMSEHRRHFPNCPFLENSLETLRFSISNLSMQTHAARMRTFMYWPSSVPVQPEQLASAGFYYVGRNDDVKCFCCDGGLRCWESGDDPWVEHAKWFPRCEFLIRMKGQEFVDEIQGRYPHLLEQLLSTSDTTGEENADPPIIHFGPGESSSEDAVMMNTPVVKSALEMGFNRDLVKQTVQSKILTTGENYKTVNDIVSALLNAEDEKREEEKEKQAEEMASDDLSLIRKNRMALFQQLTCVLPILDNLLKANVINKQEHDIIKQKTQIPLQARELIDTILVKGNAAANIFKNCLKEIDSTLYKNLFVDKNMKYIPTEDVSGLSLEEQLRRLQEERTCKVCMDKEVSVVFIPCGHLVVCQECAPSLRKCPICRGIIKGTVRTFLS
T5 sequence (P98170 238-358 limits assumed): as the sequence (P98170 238-358 limits assumed) above

B1: TRAIL: apoptotic stimulus acting by TRAIL-receptor ligation (protein, UniProt P50591 1-281, looked up)
Tumor necrosis factor ligand …: MAMMEVQGGPSLGQTCVLIVIFTVLLQSLCVAVTYVYFTNELKQMQDKYSKSGIACFLKEDDSYWDPNDEESMNSPCWQVKWQLRQLVRKMILRTSEETISTVQEKQQNISPLVRERGPQRVAAHITGTRGRSNTLSSPNSKNEKALGRKINSWESSRSGHSFLSNLHLRNGELVIHEKGFYYIYSQTYFRFQEEIKENTKNDKQMVQYIYKYTSYPDPILLMKSARNSCWSKDAEYGLYSIYQGGIFELKENDRIFVSVTNEHLIDMDHEASFFGAFLVG
immunofluorescence staining pattern of Omi (MCF-7 cells [1]): showed diffused immunofluorescence staining of Omi

B2: mature Omi: Omi polypeptide comprising residues 134-458 of SEQ ID NO:1; recombinant with C-terminal His6 tag (protein, listed as Homo sapiens)
chain: AVPSPPPASPRSQYNFIADVVEKTAPAVVYIEILDRHPFLGREVPISNGSGFVVAADGLIVTNAHVVADRRRVRVRLLSGDTYEAVVTAVDPVADIATLRIQTKEPLPTLPLGRSADVRQGEFVVAMGSPFALQNTITSGIVSSAQRPARDLGLPQTNVEYIQTDAAIDFGNSGGPLVNLDGEVIGVNTMKVTAGISFAIPSDRLREFLHRGEKKNSSSGISGSQRRYIGVMMLTLSPSILAELQLREPSFPDVQHGVLIHKVILGSPAHRAGLRPGDVILAIGEQMVQNAEDVYEAVRTQSQLAVQIRRGRETLTLYVTPEVTE
modifications: C-terminal His6 tag
promotion of procaspase-3 activation [2]: able to promote procaspase-3 activation in the XIAP-containing S100 extracts almost to the same extent as Smac
interaction with cIAP2 (cIAP2): found to also interact with cIAP1 and cIAP2
interaction with GST-BIR3-E314S mutant (GST-BIR3-E314S mutant): not with the GST-BIR3-E314S mutant
interaction with endogenous XIAP in vivo (endogenous XIAP): can also interact with endogenous XIAP in vivo
interaction with GST-BIR3 fusion protein [3]: able to interact equally with the wild type GST-BIR3 protein
interaction with GST-BIR1, 2 fusion protein [4]: able to interact with the GST-BIR1, 2 fusion protein
interaction with cIAP1 (cIAP1): found to also interact with cIAP1

B3: GFP-IETD-AVP: Omi with MTS replaced by a GFP-IETD sequence and active site Ser306 mutated to Ala (protein)
chain: B2 chain with S173A
enhancement of TRAIL-induced apoptosis (MCF-7 cells [5]): enhanced TRAIL-induced apoptosis in these cells several folds above the GFP transfected control cells

B4: GFP-IETD-SSA: GFP-IETD-Omi-S/A with the AVPS motif mutated to SSAS motif (protein)
chain: B2 chain with A1S, V2S, P3A, S173A
enhancement of TRAIL-induced apoptosis (MCF-7 cells [5]): abolished the apoptotic enhancement activity
binding to XIAP-BIR3 (GST-BIR3) (XIAP-BIR3): abolished the apoptotic enhancement activity of Omi-S/A and the ability to bind to BIR3

B5: M-Omi-S/A-GFP: inactive (S306A) Omi-GFP fusion protein without the MTS (protein)
chain: MAVPSPPPASPRSQYNFIADVVEKTAPAVVYIEILDRHPFLGREVPISNGSGFVVAADGLIVTNAHVVADRRRVRVRLLSGDTYEAVVTAVDPVADIATLRIQTKEPLPTLPLGRSADVRQGEFVVAMGSPFALQNTITSGIVSSAQRPARDLGLPQTNVEYIQTDAAIDFGNAGGPLVNLDGEVIGVNTMKVTAGISFAIPSDRLREFLHRGEKKNSSSGISGSQRRYIGVMMLTLSPSILAELQLREPSFPDVQHGVLIHKVILGSPAHRAGLRPGDVILAIGEQMVQNAEDVYEAVRTQSQLAVQIRRGRETLTLYVTPEVTE
modifications: left off: large carriers
binding to XIAP-BIR3 (GST-BIR3) (XIAP-BIR3): do not bind XIAP-BIR3
induction of apoptosis in MCF-7 cells (MCF-7 cells [6]): not the inactive M-Omi-S/A-GFP, was able to induce apoptosis

— US20030073629A1, “Omi and domains thereof that disrupt IAP-caspase interaction” (priority 2001, published 2003)
